# Patent US9993566B2, “SEZ6 modulators and methods of use” (AbbVie Stemcentrx LLC, priority 2013, dated 2018)
# Substitutions are numbered along the chain they refer to.
# B1: SC17.17: murine anti-SEZ6 antibody (antibody, V domains shown)
# VH: EVQLQQSGPEVMKPGASVKMSCKASGYTFTDYNMHWVKQNQGKSLEWIGEINPNIGGTGYNQKFKGKATLTVHKSSSTAYMELRSLTSEDSAVYYCARTYSYYSYEFAYWGQGTLVTVSA
# VL: QIVLTQSPAIMSASPGEKVTMTCSASSSVSYMHWYQQKSGTSPKRWIYDTSKLPSGVPARFSGSGSGTSYSLTISSMEAEDAATYYCQQWSSTPPTFGAGTKLELK
# modifications: Murine SC17.17 VH; Murine SC17.17 VL
# notes: murine anti-SEZ6 antibody
# B2: SC17.102: murine anti-SEZ6 antibody (antibody, V domains shown)
# VH: EVQLQQSGPELMKPGASVKMSCKASGDTFTDYNIHWVKQNQGKSLEWIGEVNPNIGGIGYNQKFKGKATLTVDKSSSTAYMELRSLTSEDSAVYYCAMGRWYFDVWGAGTTVTVSS
# VL: B1 VL with P54A, A59P, S64R, Q89H, T93N, L105M
# modifications: Murine SC17.102 VH; Murine SC17.102 VL
# notes: murine anti-SEZ6 antibody
# B3: SC17.121: murine anti-SEZ6 antibody (antibody, V domains shown)
# VH: EVQLQQSGPELMKPGASVKMSCKASGYTFTDHNIHWVKQHQGKSLEWIGEINPNTGGTGYNQKFQGKATMTVDKSSSTAYMELRSLTSEDSAVYYCVRGLYFFDYWGQGTTLTVSS
# VL: B1 VL with P54A, A79T, S92N, A99S, G100V, L105I
# modifications: Murine SC17.121 VH; Murine SC17.121 VL
# notes: murine anti-SEZ6 antibody
# B4: SC17.191: murine anti-SEZ6 antibody (antibody, V domains shown)
# VH: EVQLQQSGPELMKPGASVKMSCKASGYTFTDYNMHWVKQNQGKSLEWIGEINPNTGGTGYNQKFKDKATLTVDKSSSTAYMELRSLTSEDSAVYYCARIPSLRRYYFDYWGQGTTLTVSS
# VL: B1 VL with P54A, S62T, T93S
# modifications: Murine SC17.191 VH; Murine SC17.191 VL
# notes: murine anti-SEZ6 antibody
# B5: SC17.166: murine anti-SEZ6 antibody (antibody, V domains shown)
# VH: EVQLQQSGPELMKPGASVKMSCKASGYIFTDYNMHWVKQNQGKSLEWIGEVNPNTGGIGYNQKFKGKATLTVDKSSSTAYMDLRSLTSEDSAVYYCARDGNYCFDYWGQGTTLTVSS
# VL: B1 VL with V29I, P54A, S76N, A99G, L105I
# modifications: Murine SC17.166 VH; Murine SC17.166 VL
# notes: murine anti-SEZ6 antibody
# B6: SC17.4: murine anti-SEZ6 antibody (antibody, V domains shown)
# VH: QIQLVQSGPELKKPGETVKISCKASGYTFTDYSMHWVKQAPGKGLKWLGWINTETGEPTYSEDFKGRFAFSLETSASTAYLQINNLKNEDTATYFCVKNKGWFAYWGQGTLVTVSA
# VL: DIKMTQSPSSMYASLGERVTITCKASQDINSYLTWFQQKPGKSPKTLIYRANRLIDGVPSRFSGSGSGQDYSLTISSLDYEDMGIYYCLQYDDFPWTFGGGTKLEIK
# modifications: Murine SC17.4 VH; Murine SC17.4 VL
# notes: murine anti-SEZ6 antibody
# B7: SC17.28: murine anti-SEZ6 antibody (antibody, V domains shown)
# VH: QVHLPQSRPELVKPGASVKISCKASGYGFTRSYIHWVKQRPGQGLEWIGYISSGSGGTTYNQKFKGKASLTADNPSSTAYMHLSSLTSEDSAIYFCARGGVRYFDVWGAGTTVTVSS
# VL: DILLTQSPAILSVSPGEGVSFSCRASQSIGTSIHWYQQRTNGSPRLLIKYASESISGIPSRFSGSGSGTDFTLRINSLESEDIADYYCQQSNSWPLTFGAGTKLELK
# modifications: Murine SC17.28 VH; Murine SC17.28 VL
# notes: murine anti-SEZ6 antibody
# B8: SC17.156: murine anti-SEZ6 antibody (antibody, V domains shown)
# VH: QVTLKESGPGILQPSQTLSLTCSFSGFSLSTSGMGVSWIRKTSGKGLEWLAHIFWDDDKWYNPSLKSRLTISKATSSNQVFLILTSVDTADTATYYCATFYGLYFAYWGQGTTLTVSS
# VL: DVVMTQSPLSLPVSLGDQASISCRSSQSIVHSNGNTYLEWYLQKPGQSPKLLIYKVSNRFSGVPDRFSGSGSGTDFTLKISRVEAEDLGVYYCFQGSHVPPTFGGGTKLEIK
# modifications: Murine SC17.156 VH; Murine SC17.156 VL
# notes: murine anti-SEZ6 antibody
# B9: SC17.36: murine anti-SEZ6 antibody (antibody, V domains shown)
# VH: EVQLQESGPSLVKPSQSQSLTCSVTGDSITSDYWNWIRKFPGKKVEYMGYINYSGSTYYNPSLKSRISITRDTSKNQYYLQLNSVTSEDTATYYCARTSYYNKFLPFAYWGQGTLVTVSA
# VL: QIVLTQSPALMSASPGEKVTMTCSASSSVSYMYWYQQKPRSSPKPWIYLTSNLASGVPARFSGSGSGTSYSLTISSMEAEDAATYYCQQWSSNPPTFGGGTKLEIK
# modifications: Murine SC17.36 VH; Murine SC17.36 VL
# notes: murine anti-SEZ6 antibody
# B10: SC17.45: murine anti-SEZ6 antibody (antibody, V domains shown)
# VH: QVQLQQPGSVLVRPGDSVKLSCKASGYTFTSYWMHWVKQSPGQGLEWIGEIHPHSGSTNYNEKFKGKATLTVDTSSSTAYVDLSSLTSEDSAVYYCVGGHYDYWGQGTTLTVSS
# VL: ENVLTQSPAIMSASPGEKVTMTCSASSSVNYMYWYQQKSSTSPKLWIYDTSKLTSGVPGRFSGSGSGNSYSLTISNMEAEDVATYYCFQGSGYPLTFGSGTKLEIK
# modifications: Murine SC17.45 VH; Murine SC17.45 VL
# notes: murine anti-SEZ6 antibody
# Assays:
# Format in all cases: binding
# rat SEZ6 = assay: Flow cytometry cross reactivity, RIN-m5F cells; conditions: 5 μg/mL antibody
# Method: (§1) In this regard flow cytometry was performed using a FACSCanto II as per the manufacturer's instructions in order to confirm that selected SC17 antibody modulators can immunospecifically associate with human SEZ6 and to determine whether the same modulators cross-react with cynomolgus, rat and/or murine SEZ6 in addition to SEZ6L and SEZ6L2. More particularly modulators were tested for cross reactivity to murine SEZ6 and rat SEZ6 by flow cytometry against Neuro2a (ATCC Cat # CCL131), and RIN-m5F (ATCC cat # CRL-11605) cell lines which express mouse SEZ6 and rat SEZ6, respectively. For examining cross reactivity to cynomolgus SEZ6, yeast displaying the extracellular domain of cynomolgus SEZ6 (Boder et al, 1997) were used for flow cytometry analysis.
# (§2) Briefly 1×10^5 cells per well of Neuro2a, RIN-5mF, or yeast displaying cynomolgus SEZ6 cells were incubated for 30 minutes with 50 μL PBS (2% FCS) buffer with 5 μg/mL antibody. Cells were washed twice with the same buffer and then incubated with 50 μL per sample DyLight 649 labeled goat-anti-mouse IgG, Fc fragment specific secondary diluted 1:200 in PBS buffer. After incubating for 15 minutes cells were washed twice with the PBS buffer and re-suspended in the same with DAPI for flow cytometry analysis of Neuro2a and Rin-m5F or buffer without DAPI for flow cytometric analysis of yeast cells with cSEZ6.
# cynomolgus SEZ6 = assay: Flow cytometry cross reactivity, yeast displaying extracellular domain of cynomolgus SEZ6; conditions: 5 μg/mL antibody
# Method: as §1, §2
# SEZ6 ECD = molecular target: T1, SEZ6 ECD (Homo sapiens, UniProt Q53EL9); assay: Fine epitope mapping (phage display peptide library or yeast-displayed SEZ6 ECD mutants); conditions: epitope conformational (discontinuous) or linear
# T1 construct: SEZ6 extracellular domain (amino acids 1-904); expressed in transfected cells; host or cells: yeast (surface display, Cochran et al. protocol)
# Method: Epitopes were classified either as conformational (i.e. discontinuous) or linear. Yeast displaying the SEZ6 ECD construct was heat treated for 30 minutes at 80° C. in order to denature the antigen, washed twice in ice-cold PBSA and then subjected to the same staining protocol and flow cytometry analysis as described above. Antibodies that bound to both the denatured and native yeast were classified as binding to a linear epitope, whereas antibodies that bound native yeast but not denatured yeast were classified as conformationally specific.
# Fine epitope mapping was further performed on selected antibodies to determine the specific amino acids to which they bound. Antibodies that bound to a linear epitope were mapped using the Ph.D.-12 phage display peptide library kit (New England Biolabs E8110S). The antibody selected for epitope mapping was coated onto a Nunc MaxiSorp tube (Nunc) at 50 μg/mL in 3 mL 0.1 M sodium bicarbonate solution, pH 8 and incubated overnight. The tube was blocked with 3% BSA solution in bicarbonate solution. Then, 10^11 input phage in PBS+0.1% Tween-20 was allowed to bind, followed by ten consecutive washes with 0.1% Tween-20 to wash away non-binding phage. Remaining phage were eluted with 1 mL 0.2 M glycine for 10 minutes at room temperature with gentle agitation, followed by neutralization with 150 μL 1 M Tris-HCl pH 9. Eluted phage were amplified and panned again with 10^11 input phage, using 0.5% Tween-20 during the wash steps to increase selection stringency. DNA from 24 plaques of the eluted phage from the second round was isolated using the Qiaprep M13 Spin kit (Qiagen) and sequenced. Binding of clonal phage was confirmed using an ELISA assay, where the mapped antibody or a control antibody was coated onto an ELISA plate, blocked, and exposed to each clone phage. Phage binding was detected using horseradish peroxidase conjugated anti-M13 antibody (GE Healthcare), and the 1-Step Turbo TMB ELISA solution (Pierce). Phage peptide sequences from specifically binding phage were aligned using Vector NTI (Life Technologies) against the antigen ECD peptide sequence to determine the epitope of binding.
# Selected antibodies that bound to a discontinuous epitope were mapped using the technique described by Chao et al. (2007). Libraries of SEZ6 ECD mutants were generated with error prone PCR using nucleotide analogues 8-oxo-2′deoxyguanosine-5′-triphosphate and 2′-deoxy-p-nucleoside-5′triphosphate (both from TriLink Bio) for a target mutagenesis rate of one amino acid mutation per clone. These were transformed into a yeast display format. Using the technique described above for domain-level mapping, the library was stained for c-myc and antibody binding at 50 nM. […] These clones were re-grown, and subjected to another round of FACS sorting for loss of binding to the target antibody. Using the Zymoprep Yeast Plasmid Miniprep kit (Zymo Research), individual ECD clones were isolated and sequenced. Where necessary, mutations were reformatted as single-mutant ECD clones using the Quikchange site directed mutagenesis kit (Agilent).
# Individual ECD clones were next screened to determine whether loss of binding was due to a mutation in the epitope, or a mutation that caused misfolding. Mutations that involved cysteine, proline, and stop codons were automatically discarded due to the high likelihood of a misfolding mutation. Remaining ECD clones were then screened for binding to a non-competing, conformationally specific antibody. ECD clones that lost binding to non-competing, conformationally specific antibodies were concluded to contain misfolding mutations, whereas ECD clones that retained equivalent binding as wild type SEZ6 ECD were concluded to be properly folded. Mutations in the ECD clones in the latter group were concluded to be in the epitope. […]
# SEZ6L2 = molecular target: T2, SEZ6L2 (Homo sapiens, UniProt Q6UXD5, INS830AYEELLDNRKLEV); assay: ELISA cross reactivity to family member SEZ6L2; design: key to binds SEZ6 family member SEZ6L2 (dagger): *: antibodies that bind SEZ6 family members SEZ6L and SEZ6L2 are designated with an asterisk and/or a dagger, respectively; †: antibodies that bind SEZ6 family members SEZ6L and SEZ6L2 are designated with an asterisk and/or a dagger, respectively
# T2 construct: IgK signal peptide (N, cleaved yes); made in house; host or cells: HEK-293T or CHO-S
# Method: To determine cross reactivity to family member proteins, SEZ6L and SEZ6L2, an ELISA-based assay was used. Plates were coated with SEZ6, SEZ6L, or SEZ6L2 proteins at 0.2 μg/mL in PBS overnight. After washing with PBS containing 0.05% (v/v) Tween 20 (PBST), the wells were blocked with 2% (w/v) BSA in PBS (PBSA), 100 μL/well for 1 hour at room temperature. Antibody was then added at 1 μg/mL in 100 μL PBSA for 1 hour at room temperature. After washing with PBST, 100 μL/well HRP-labeled goat anti-mouse IgG diluted 1:2,000 in PBSA for 1 hour at room temperature. The plates were washed and 100 μL/well of the TMB substrate solution (Thermo Scientific 34028) was added for 15 minutes at room temperature. After developing, an equal volume of 2M H2SO4 was added to stop substrate development and analyzed by spectrophotometer at OD 450. […] As discussed above, such pan-SEZ6 antibodies are compatible with the teachings herein and may be used in conjunction with the disclosed methods.
# T1 sequence (Q53EL9 20-923): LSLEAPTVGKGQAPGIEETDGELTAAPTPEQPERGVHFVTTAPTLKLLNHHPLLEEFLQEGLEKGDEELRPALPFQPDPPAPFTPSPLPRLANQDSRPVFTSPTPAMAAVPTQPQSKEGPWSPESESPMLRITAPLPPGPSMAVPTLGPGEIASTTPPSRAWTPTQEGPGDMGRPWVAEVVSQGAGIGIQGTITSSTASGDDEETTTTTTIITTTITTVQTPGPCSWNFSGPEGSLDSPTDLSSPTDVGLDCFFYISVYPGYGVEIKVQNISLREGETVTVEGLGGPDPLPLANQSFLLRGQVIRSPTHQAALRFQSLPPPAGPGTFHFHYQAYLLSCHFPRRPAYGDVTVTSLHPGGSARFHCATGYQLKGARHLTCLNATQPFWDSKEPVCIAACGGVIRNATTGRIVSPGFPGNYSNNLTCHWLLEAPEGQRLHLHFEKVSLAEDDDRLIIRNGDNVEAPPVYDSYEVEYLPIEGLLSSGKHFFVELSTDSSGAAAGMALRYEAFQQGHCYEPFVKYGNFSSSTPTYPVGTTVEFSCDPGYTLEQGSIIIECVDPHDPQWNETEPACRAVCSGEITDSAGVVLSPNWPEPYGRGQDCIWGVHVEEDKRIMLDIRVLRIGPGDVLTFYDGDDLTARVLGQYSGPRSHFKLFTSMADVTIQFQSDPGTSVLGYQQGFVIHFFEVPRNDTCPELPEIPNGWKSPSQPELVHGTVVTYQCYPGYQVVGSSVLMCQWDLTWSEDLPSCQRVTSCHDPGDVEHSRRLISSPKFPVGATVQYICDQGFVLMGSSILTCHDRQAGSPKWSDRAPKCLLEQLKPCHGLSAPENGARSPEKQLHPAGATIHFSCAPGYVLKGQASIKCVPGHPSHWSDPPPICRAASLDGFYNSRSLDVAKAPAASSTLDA
# rat SEZ6, sequence (as listed by the source): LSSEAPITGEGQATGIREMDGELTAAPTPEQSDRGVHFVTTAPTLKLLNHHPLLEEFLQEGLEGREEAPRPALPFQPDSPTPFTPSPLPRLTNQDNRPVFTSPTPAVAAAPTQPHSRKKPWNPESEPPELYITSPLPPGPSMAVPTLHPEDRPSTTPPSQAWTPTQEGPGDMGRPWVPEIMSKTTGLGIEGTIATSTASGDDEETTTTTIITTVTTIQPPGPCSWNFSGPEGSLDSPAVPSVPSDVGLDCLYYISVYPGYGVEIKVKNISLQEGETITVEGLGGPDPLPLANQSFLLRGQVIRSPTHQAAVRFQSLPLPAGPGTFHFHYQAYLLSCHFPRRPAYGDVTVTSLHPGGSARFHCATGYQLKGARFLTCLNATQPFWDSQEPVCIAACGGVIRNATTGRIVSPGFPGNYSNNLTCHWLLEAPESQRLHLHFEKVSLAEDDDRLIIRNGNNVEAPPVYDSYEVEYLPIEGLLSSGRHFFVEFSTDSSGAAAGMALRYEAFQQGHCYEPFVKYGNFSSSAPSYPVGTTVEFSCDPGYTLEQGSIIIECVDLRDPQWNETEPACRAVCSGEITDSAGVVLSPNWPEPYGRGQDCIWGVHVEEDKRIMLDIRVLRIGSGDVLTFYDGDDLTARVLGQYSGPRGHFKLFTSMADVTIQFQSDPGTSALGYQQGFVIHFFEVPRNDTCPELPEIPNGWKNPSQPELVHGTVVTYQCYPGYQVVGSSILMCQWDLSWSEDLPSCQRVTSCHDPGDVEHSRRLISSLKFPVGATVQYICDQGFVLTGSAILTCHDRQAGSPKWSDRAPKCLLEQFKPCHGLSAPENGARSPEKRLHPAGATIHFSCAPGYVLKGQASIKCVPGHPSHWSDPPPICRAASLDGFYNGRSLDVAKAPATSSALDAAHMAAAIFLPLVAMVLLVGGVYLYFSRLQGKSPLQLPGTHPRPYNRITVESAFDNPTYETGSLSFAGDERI
# T2 sequence (Q6UXD5 with tags, fused parts or gaps with the stated changes): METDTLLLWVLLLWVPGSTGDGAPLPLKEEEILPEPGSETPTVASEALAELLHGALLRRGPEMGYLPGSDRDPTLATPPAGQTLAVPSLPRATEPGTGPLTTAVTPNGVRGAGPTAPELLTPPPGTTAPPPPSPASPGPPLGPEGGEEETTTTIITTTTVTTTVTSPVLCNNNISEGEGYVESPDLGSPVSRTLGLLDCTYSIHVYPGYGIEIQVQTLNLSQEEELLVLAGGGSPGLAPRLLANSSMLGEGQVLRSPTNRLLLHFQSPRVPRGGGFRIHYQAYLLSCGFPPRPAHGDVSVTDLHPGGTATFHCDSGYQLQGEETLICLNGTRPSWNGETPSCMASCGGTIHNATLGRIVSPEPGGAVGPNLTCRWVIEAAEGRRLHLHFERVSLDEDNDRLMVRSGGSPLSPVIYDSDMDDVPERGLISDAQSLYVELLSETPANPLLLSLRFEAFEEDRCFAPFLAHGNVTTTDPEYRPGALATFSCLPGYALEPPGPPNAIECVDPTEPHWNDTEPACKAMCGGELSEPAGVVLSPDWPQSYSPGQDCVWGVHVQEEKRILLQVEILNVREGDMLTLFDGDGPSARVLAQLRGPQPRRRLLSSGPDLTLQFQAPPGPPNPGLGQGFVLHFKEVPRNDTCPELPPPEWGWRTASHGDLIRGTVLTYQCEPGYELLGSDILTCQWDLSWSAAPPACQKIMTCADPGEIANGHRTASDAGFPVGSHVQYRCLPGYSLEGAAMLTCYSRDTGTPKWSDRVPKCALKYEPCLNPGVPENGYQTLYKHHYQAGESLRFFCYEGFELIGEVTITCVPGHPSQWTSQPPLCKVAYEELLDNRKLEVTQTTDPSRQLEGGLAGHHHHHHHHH
molecule,measurement,setting,value
B1,cross reactivity to rat SEZ6,rat SEZ6,cross reactive
same,cross reactivity to cynomolgus SEZ6,cynomolgus SEZ6,cross reactive
same,Discontinuous,SEZ6 ECD,Yes
B2,Discontinuous,SEZ6 ECD,Yes
B3,Discontinuous,SEZ6 ECD,Yes
B4,Discontinuous,SEZ6 ECD,Yes
B5,Discontinuous,SEZ6 ECD,Yes
B6,Discontinuous,SEZ6 ECD,No
B7,cross reactivity to rat SEZ6,rat SEZ6,cross reactive
same,cross reactivity with SEZ6L2,"SEZ6L2; ELISA, antibody 1 μg/mL",cross-reactive
same,binds SEZ6 family member SEZ6L2 (dagger),SEZ6L2; mark in Table 5,"SC17.6^†, SC17.28^†, SC17.103, SC17.109, SC17.119,"
B8,Discontinuous,SEZ6 ECD,Yes
B9,cross reactivity to cynomolgus SEZ6,cynomolgus SEZ6,cross reactive
same,Discontinuous,SEZ6 ECD,Yes
B10,cross reactivity to cynomolgus SEZ6,cynomolgus SEZ6,cross reactive
